Reference: patent publication US20260184785A1 (CYTOCARES SHANGHAI, published 2026)

Target: T1, trispecific antibody LMOAME
T1 construct: Trispecific single-chain tandem scFv, monomer of 83.8 kDa without Fc; also called CD19×CD3×CD28 antibody; LMOAME DP
Assay: ELISA, antigen-Fc coated on the plate, detection with HRP-protein L
Protocol: Recombinant human CD19 antigen (CD19 (C-Fc), Novoprotein, Cat #: C572), and CD28 antigen (CD28 (C-Fc), Novoprotein, Cat #: C81) were diluted to 2 μg/mL with a protein coating solution, and plates were coated with the dilutions of 100 μL per well overnight at 2-8° C. The plates were washed the next day and blocked with a blocking solution of 1% Casein+3% BSA (PBS+2% BSA (V/W)).
The diluted antibodies were added to the 96-well flat bottom plates coated with antigens respectively and incubated for 1 h at 37° C.

B1: Recombinant human CD19 antigen (CD19 (C-Fc), Novoprotein, Cat #: C572) (Fc fusion, UniProt P15391 20-291, looked up)
chain: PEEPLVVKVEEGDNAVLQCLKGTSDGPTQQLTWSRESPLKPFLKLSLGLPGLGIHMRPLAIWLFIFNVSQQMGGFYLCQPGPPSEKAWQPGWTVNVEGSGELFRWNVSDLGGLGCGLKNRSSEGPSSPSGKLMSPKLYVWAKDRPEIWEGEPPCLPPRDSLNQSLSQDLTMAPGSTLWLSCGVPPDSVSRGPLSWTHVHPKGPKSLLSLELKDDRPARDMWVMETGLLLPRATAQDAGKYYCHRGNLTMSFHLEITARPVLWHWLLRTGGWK
notes: Bought C-terminal Fc fusion; also called rhCD19; hCD19 antigen; not shown: C-terminal Fc tag of the bought protein
Q: Does B1 bind?
A: Result: binds
